Measurements taken from patent publication US20240287172A1 (SCIRHOM, published 2024).
Positions count from the first letter of the chain named.

T1: hiR2-FL-L539A-T7 (human, UniProt Q6PJF5 1-856)
T1 construct: on MEF-DKO cells
T1 sequence: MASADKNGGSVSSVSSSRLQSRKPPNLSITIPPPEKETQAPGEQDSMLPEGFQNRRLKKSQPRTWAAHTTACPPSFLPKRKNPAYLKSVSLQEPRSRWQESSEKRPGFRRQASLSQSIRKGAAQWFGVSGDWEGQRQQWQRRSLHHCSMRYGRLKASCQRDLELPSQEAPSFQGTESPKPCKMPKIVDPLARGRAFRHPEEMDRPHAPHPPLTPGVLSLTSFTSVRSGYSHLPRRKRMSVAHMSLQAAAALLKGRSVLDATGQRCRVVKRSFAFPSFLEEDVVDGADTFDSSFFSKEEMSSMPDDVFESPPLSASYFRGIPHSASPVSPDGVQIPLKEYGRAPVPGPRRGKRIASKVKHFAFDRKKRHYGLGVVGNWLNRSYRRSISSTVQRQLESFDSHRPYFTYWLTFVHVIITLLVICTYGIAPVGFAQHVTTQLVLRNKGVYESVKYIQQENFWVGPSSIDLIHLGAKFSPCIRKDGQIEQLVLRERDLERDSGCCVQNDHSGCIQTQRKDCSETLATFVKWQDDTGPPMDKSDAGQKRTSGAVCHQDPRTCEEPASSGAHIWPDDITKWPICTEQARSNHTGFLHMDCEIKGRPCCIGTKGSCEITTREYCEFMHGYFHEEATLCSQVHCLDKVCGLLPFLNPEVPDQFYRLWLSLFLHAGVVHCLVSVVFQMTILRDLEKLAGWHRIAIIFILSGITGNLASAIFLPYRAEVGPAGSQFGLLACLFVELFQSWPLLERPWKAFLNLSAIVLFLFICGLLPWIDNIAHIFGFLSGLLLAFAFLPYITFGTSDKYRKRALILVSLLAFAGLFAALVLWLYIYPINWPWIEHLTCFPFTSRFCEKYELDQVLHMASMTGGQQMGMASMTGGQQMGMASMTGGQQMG

T2: hiR2-FL-D535A-T7 (human, UniProt Q6PJF5 1-856)
T2 sequence: T1 sequence with D535A, A539L

B1: antibody 34 (antibody, V domains shown)
VH: QVTLKESGPGILQPSQTLSLTCSFSGFSLSTFSLGVGWIRQSSGKGLEWLAHIWWDDEKYYNPALKSRLTISKDTSKNQVFLKIANVDAADTATYYCARAYYSKSYYALDYWGQGTSVTVSS
VL: DIQMTQSPSSLSASLGERVSLTCRASQEISGYLSWLQQKPDGTIKRLIYAASTLDSGVPKRFSGSRSGSDYSLAISSLESEDFADYYCLQYANFPFTFGSGTKLEIK
notes: mouse IgG, kappa light chain; also called clone #34; purified antibody 34
B2: antibody 5 (antibody, V domains shown)
VH: QVTLKESGPGILQPSQTLSLTCSFSGFSLSTFGMGVGWIRQPSGKGLEWLAHIWWDDEKYYNSALKSRLTISKATSKNQAFLKIANVDTADTATYYCARISNYGSNYWYFNVWGTGTTVTVSS
VL: QVVLTQSPALMSASPGEKVTMTCSAGSSVSCMYWYQQKPGSSPRVLIYDTSNLASGVPARFTGSGSGTSYSLTISRMEAEDAASYYCQQWNSYPLTFGAGTKLELK
notes: mouse IgG, kappa light chain; also called clone #5; purified antibody 5
B3: antibody 44 (antibody, V domains shown)
VH: B2 VH with G44E, E58D, S63P, A74D, A80I, A85T, D91E, A98S, S101G, N111D
VL: QIVLTQSPAVMSASPGEKVTMTCTASSSVYYMYWYQQTPGSSPRLLIYDTSNLASGVPVRFSGSGSGTSYSLTISRMEAEDAATYYCQQWNTYPLTFGAGTKLELK
notes: mouse IgG, kappa light chain; also called clone #44; purified antibody 44
B4: antibody 43 (antibody, V domains shown)
VH: B2 VH with T3A, P42S, H52N, E58D, S63P, A74D, T75A, S101G, N111D
VL: QIVLTQSPAIMSASPGERVTMTCSANSRISYMYWYQQKPGSSPRLLIYDTSNLASGVPVRFSGSGSGTSYSLTISRMEAEDAATYNCQQWSSYPLTFGAGTKLELK
notes: mouse IgG, kappa light chain; also called clone #43; purified antibody 43
B5: antibody 42 (antibody, V domains shown)
VH: B2 VH with F24L, M34R, S63P, A74D, A80V, K83R, S101Q, N111D
VL: B4 VL with Q1L, R18K, S24G, N26T, Y33F, L45V, M77V, A82V, N86Y, S91N
notes: mouse IgG, kappa light chain; also called clone #42; purified antibody 42
B6: antibody 22 (antibody, V domains shown)
VH: B2 VH with A80V
VL: B2 VL with C31Y, S84T
notes: mouse IgG, kappa light chain; also called clone #22; purified antibody 22
B7: antibody 50 (antibody, V domains shown)
VH: QVQLQQSGAELVRPGASVKVSCKASGYAFSNYLIEWVKQRPGQGLEWIGVINPGSGFTKYNEKFKGKATLTADKSSSTAYMQLSSLTSEDSAVYFCARGLYRAMDYWGQGTSVTVSS
VL: DIQMTQSPASQSASLGESVTITCLASQTIGTWLAWYQQKPGKSPQLLIYAAASLADGVPSRFSGGGSGTKFSFKISSLQAEDFVNYYCQQIYSTPYTFGGGTKLEIK
notes: mouse IgG, kappa light chain; also called clone #50; purified antibody 50
B8: antibody 3 (antibody, V domains shown)
VH: QVTLKESGPGILQPSQTLSLTCSFSGFSLTTFAMGIGWVRQPSGKGLEWLAHIWWDGEKYNNPVLKSRLTISKDTSKNQVFLRIANVDTPDTATYYCARISSIYYIIDNWGQGTSVTVSS
VL: DIVLTQSPATLSVTPGHSVSLSCRASQSISNNLHWYQKKSHESPRLLIKYVSQSISGIPSRFSGSGSGTDFTLSINSVETEDFGMYFCQQSYNWPLTFGAGTKLELK
notes: mouse IgG, kappa light chain; also called clone #3; purified antibody 3

Key:
hiR2-FL-L539A-T7 = target: T1, hiR2-FL-L539A-T7; test: FACS on MEF-DKO cells expressing the variant, 3 µg/ml antibody
Procedure: (§1) To pellet cells and remove supernatants, the plates were centrifuged at 1,500 rpm and 4° C. for 3 minutes. For primary staining, cells were resuspended in 100 μl per well of either FACS buffer alone (controls) or the purified antibodies 3, 5, 16, 22, 34, 42, 43, 44, 48, and 50 of the invention at 3 μg/ml in FACS buffer and incubated on ice for 1 hour. Afterwards, plates were centrifuged at 1,500 rpm and 4° C. for 3 minutes and washed twice with 200 μl per well of FACS buffer. For secondary staining, cells were spun down and resuspended in 100 μl per well of PE-conjugated goat anti-mouse IgG F(ab′)2 detection fragment (Dianova, Germany) diluted 1:100 in FACS buffer. Protected from light, the cell suspensions were incubated on ice for 1 hour. Plates were then centrifuged at 1,500 rpm and 4° C. for 3 minutes and washed three times with 200 μl per well of FACS buffer. Finally, cells were resuspended in 150 μl per well of FACS buffer and analyzed using a BD Accuri™ C6 Plus flow cytometer (Becton Dickinson, Germany).

hiR2-FL-D535A-T7 = target: T2, hiR2-FL-D535A-T7; test: as above
Procedure: as §1

Row | Binder | loss of binding vs wild type (hiR2-FL-L539A-T7) | loss of binding vs wild type (hiR2-FL-D535A-T7)
1 | B1 | ≥ 60% | ≥ 30%
2 | B2 | ≥ 60% | ≥ 60%
3 | B3 | ≥ 60% | ≥ 30%
4 | B4 | ≥ 95% | –
5 | B5 | ≥ 60% | ≥ 30%
6 | B6 | ≥ 95% | ≥ 30%
7 | B7 | ≥ 30% | –
8 | B8 | ≥ 30% | ≥ 60%
